One block for each molecule: values may come before it.
Tests used:
FITC-labeled MyoVa-GTD [1] = target: T1, FITC-labeled MyoVa-GTD (human, UniProt Q9Y4I1 1448-1855, fluorescein isothiocyanate (FITC) label, site not stated); assay: MST; 300 nM FITC-labeled MyoVa-GTD, serial dilution of RPGRIP1L-C2 domains; 50 mM HEPES, 150 mM NaCl, 5% glycerol, 0.05% tween-20, pH 7.2; Monolith NT.115, LED power 20%, MST power 60%; triplicate
T1 chain: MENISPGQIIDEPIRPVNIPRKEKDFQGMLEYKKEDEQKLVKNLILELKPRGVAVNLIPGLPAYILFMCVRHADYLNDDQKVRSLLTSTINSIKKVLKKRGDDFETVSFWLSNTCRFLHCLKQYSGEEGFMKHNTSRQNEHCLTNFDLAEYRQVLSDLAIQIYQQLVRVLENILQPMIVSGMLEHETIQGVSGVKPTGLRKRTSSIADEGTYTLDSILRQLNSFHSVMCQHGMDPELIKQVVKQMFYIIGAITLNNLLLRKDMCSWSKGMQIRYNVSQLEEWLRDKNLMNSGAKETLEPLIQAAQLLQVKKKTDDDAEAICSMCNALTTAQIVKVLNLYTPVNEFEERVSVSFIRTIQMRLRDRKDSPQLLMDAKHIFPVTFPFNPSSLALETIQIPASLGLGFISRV

FITC-labeled MyoVa-GTD [2] = target: T1, FITC-labeled MyoVa-GTD; assay: MST

Molecule: RPGRIP1L-C2 domains
- Kd (FITC-labeled MyoVa-GTD [1]): 3 to 9 µM

B1: RPGRIP1L-C2MED domain, purified, GST removed (domain or fragment)
chain: STDSTDGNLNELHITIRCCNHLQSRASHLQPHPYVVYKFFDFADHDTAIIPSSNDPQFDDHMYFPVPMNMDLDRYLKSESLSFYVFDDSDTQENIYIGKVNVPLISLAHDRCISGIFELTDHQKHPAGTIHVILKWKFAYLPPSGSITTE
- Kd (FITC-labeled MyoVa-GTD [2]): 8.9 µM

More lines, in order of falling Kd (FITC-labeled MyoVa-GTD [2]), values ahead:

- Kd (FITC-labeled MyoVa-GTD [2]): 3.8 µM
B3: RPGRIP1L-C2_(CTERM) domain, purified, GST removed (domain or fragment)
chain: MQQGKDDVSLLSEGQLAEQSLASSEDETEITEDLEPEVEEDMSASDSDDCIIPGPISKNIKQPSEKIRIEIIALSLNDSQVTMDDTIQRLFVECRFYSLPAEETPVSLPKPKSGQWVYYNYSNVIYVDKENNKAKRDILKAILQKQEMPNRSLRFTVVSDPPEDEQDLECEDIGVAHVDLADMFQEGRDLIEQNIDVFDARADGEGIGKLRVTVEALHALQSVYKQYRDDLEA

- Kd (FITC-labeled MyoVa-GTD [2]): 2.8 µM
B2: RPGRIP1L-C2_(NTERM) domain, purified, GST removed (domain or fragment)
chain: RIHKLEAQLKDIAYGTKQYKFKPEIMPDDSVDEFDETIHLERGENLFEIHINKVTFSSEVLQASGDKEPVTFCTYAFYDFELQTTPVVRGLHPEYNFTSQYLVHVNDLFLQYIQKNTITLEVHQAYSTEYETIAACQLKFHEILEKSGRIFCTASLIGTKGDIPNFGTVEYWFRLRV
